The substances below were run on HEK293T (assay: median enrichment of reporter reads in eGFP-reduced (low/intermediate) vs eGFP-high sorted cells (eGFP-extension fusion abundance) (ratio); higher = stronger loss of eGFP-fusion protein abundance (more destabilising extension)).
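Also: lentiviral eGFP-IRES-mCherry reporter pool sorted by FACS 96 h post-transduction, gated on mCherry-high cells, Illumina read counts normalized per million, median across four biological replicates.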

Substance	median enrichment
YLFFFFLIEVLVL [FAM160A1]	25.1
YLICTNMTQMFSKITGKPLTSICVSQLTEKKITCSSFIISHWNII [SENP7]	3.44
YLISYYIF [PCDHB8]	5
YLKKTVLSAMTLYIKGVLFC [PLAAT3]	13.8
YLKNMYPL [ERCC5]	7.72
YLL [TOR1AIP2]	3.21
YLLCVVGGGYYLYQPSVCHEPVGKSDIFII [IL1RAP]	6.77
YLLKYRNLNNVKLD [TJP1]	4.45
YLRTLPFFPLSSLPLPFLPIYPFPSSKSTQGEENKMTTQDLVAKILHSKSSFV [FGF12]	9.45
YLSGLSVL [MCOLN3]	19
YLSNH [WDR27]	3.24
YLSSAPVVVVVLNFRI [ZSCAN21]	16.1
YLSVYLSIYLSIYLSIYVYLSCIYTRL [AK9]	9.52
YLTFPAESVARGKVTIYAEMICLVPILCSTSVFQKFLINKLI [CDCA2]	4.06
YLTLHLSSGCQGRRRSQQAPLFCSLSPEAEHMFSEKLLLRTF [RAF1]	6.79
YLTLPIS [OR5AS1]	15.4
YLVIHAFFPGQGSRVTRPPETSQEARALFK [SNX19]	13.6
YLYHYSRSSSQHHLLATWDV [GCG]	12.4
YMCPTDPGTFLPQCCACKYTVKLSLYHFDRGED [GLRA2]	11.1
YMFVWN [STKLD1]	6.18
YMHCSGS [STT3B]	2.33
YMILKPETI [TRIP11]	4.3
YMKLDI [ARF4]	1.7
YMQKWIK [KCNMB2]	11.9
YMQRPRRAALTTRFIF [EWSR1]	6.81
YMSEHGLSQACLHGIRLATPARPPGWFFSS [TJP2]	4.38

Substance	median enrichment
YMSEVQTLKKLAF [SLC7A13]	4.37
YMSF [PPP1CC]	1.47
YNEK [PJVK]	0.295
YNFFHLRNYCDL [CHD6]	19.1
YNIRKKATSMVINGRKAGELDSAVLLTGELWSSAPVYGPCRLVGWQMLA [DPPA4]	10.4
YNIVYVFCHL [KIAA1586]	8.8
YNIYKLWVLDGLS [RBM41]	3.9
YNIYSYDKDT [HCRTR2]	5.01
YNLIASTLKDKTSNSHLL [KIF9]	1.28
YNLLLIIISEIISGSPWTTS [ZIC5]	5.16
YNMTYSYSSLLSPLYSFFFNIFMTFKSLLYSLARKCTFFLLV [ADAMTS12]	4.84
YNPFALMSLPFVT [SIX2]	1.36
YNQGSVTPCHAPTVEIPPLLKFFMVVSLPGSLMLS [KCNS1]	11.7
YNSEVNVLKYNY [TEFM]	0.662
YNWKLSTHRKRSLLGRWPPQCLEKNLWASTAAREELLQARGRKGENTNSLVVSGVGG [S1PR1]	5.24
YNYLLNQDKHAFLLPWFYL [NCKAP1]	8.38
YNYLSPL [FAM104B]	2.29
YPAALPGGGGIKRPESPGCPRRDANHPVLSTGPSSLFHPHFC [E2F7]	6.7
YPAHLASLFSF [ECD]	2.85
YPALLPSDGHPSRGLSHTVPLRSA [CTDSP2]	9.24
YPCTISPSSFLGQPGPALVCGDWRDQERVWRPPEGCCLPGLQ [MLST8]	5.76
YPDPHRCCDLFVLSTVE [FGF14]	9.33
YPGASWLRLAPSGHLPWSDPFQMKCGDIDLFFFFFETEFHSCCPVWSAMAQSQLTATSASWVQAILLPQPPK [SPC24]	7.7
YPGGRVAAGGACAEAS [SLC7A5]	1.04
YPGSFYGHE [ZNF700]	0.482
YPHRGAGEGALDN [TMEM203]	0.51

Substance	median enrichment
YPILKVALFLLDLAELVAWGVGEIKRT [SPCS2]	11.7
YPLLKECEI [NCOA1]	0.498
YPLRDSRCYLSSVPHFL [SYT9]	12
YPNIIQGTEIKELRFKHKCLAQTYL [EEF1E1]	7.38
YPPAQPRTDMNIGWTEVASV [PIP4K2A]	5.83
YPPQGPAPPRPGE [WFIKKN1]	0.52
YPQPPPHHPLPKSSACSPGERTAGLSY [COTL1]	11.5
YPSL [KCNK2]	0.357
YPSLCHWVECAFRAS [ARHGEF6]	7.57
YPSQGCSSVPSRRMWQGRAGSE [SERPINA4]	0.599
YPSVLHTARGPRMPRPPLAPAGREPDHLPC [CHI3L1]	2.05
YPTVGPGWAGRSWCVTGCPGRHVLALTVPGLSLPAAAIQEIVATVTLTSSAWFLPLPSGVDKGPLIIFSFVFL [DVL2]	7.88
YPV [HNRNPUL1]	0.542
YPVGGWRVCHSNLIESRKTEGNAAAN [OR52E8]	4
YPVLEGTGGIIFNDLLN [NXPE3]	1.65
YPVTL [SMCO1]	0.416
YPVTPRDCLVQVVAAGGTHAAPRSEQTLPCRPAPAGPDGPLWRLDLLGQAALGLSAPSCLSRCDRARPKPGCTLLDWASLHCL [MLST8]	4.58
YPWALPCYPFSPLEVPNLLHPLPLL [PPRC1]	3.39
YPWPPGLASSFWVSQAPLALTPLARSPSFRSS [PPFIA4]	16
YPYGE [PRKCH]	0.563
YQAQLQKDLTCAHKILL [LCN6]	7.65
YQFCPTSLSPQPLQSSVTCCGLYSGSALATSPNISSSFSPSDLTVQ [JOSD1]	7.58
YQGPLDL [OR56A3]	0.714
YQGPSQYPWRTREIAPYRQWRGVPSHRQEPEAQAAHPFQPSRTHTDGREGGHSMNYC [XYLT2]	1.21
YQHWPSVFLGGTSQEPLPALLESQRGQEAVAGASTQLG [GDF5]	1.15
YQIYRVEGLIGEGRSSGSTQELDWKRSL [SON]	9.11

Substance	median enrichment
YQLFAISCTQTCVIYAPGNQ [MAST2]	7.02
YQLINLE [BRWD3]	0.91
YQNNGFL [GNL3]	1.22
YQSVL [RNASE9]	1.04
YQVAELGPLGQGAQATSSFVVTKQGSPFPFLLPYFVQRTRVIYIYICICLYPSPHLSDSALGTQLWAARGAVPCGSSCVCVPS [SCAMP5]	8.36
YQVIAEQMNRPPASVANTRSISLGQWTNT [LCP2]	2.43
YRA [SYNE2]	0.591
YRCEGIGETLGWLVMVSIAGHQKLDS [B4GALNT2]	17.4
YRDLQRPGQK [PEG10]	12
YRGPCRHHPPPSPCPQPVCPVPCPPQAWWWQWRRLRRLKRLTGRGAFCLAHCPDDPPAPSRLQQQSPRRTGWTEEKEVDCCTH [SOX10]	3.52
YRGRPGTGGMSCRPQPGRTPHSLSRQRGQNRPAQPWSPLHSPRPLAPALPTSSAWSEGAARAQQRRGGRLWPPTSRPVPAGTA [ARHGAP39]	7.75
YRHLVVFWEQKNYFLLTRLFVLKTIFLNLS [EP300]	14
YRHQVW [SMAD3]	1.22
YRKGW [C9orf131]	0.926
YRKVSVSPNPHSNEF [GPR22]	41.8
YRLFVHYCFHFVPRVKQTTEKSNQVITYPSAGDFDY [ZBBX]	10.1
YRLLSKHRFSR [Degron FEM1A/C]	5.74
YRMETQKT [USH2A]	0.809
YRNLENYTCFSEIITEYT [ABCD3]	11.4
YRNSEVQPLENNIQEGHIDYKLMSCPICNSGS [FRRS1]	25.3
YRNSNPGVPV [INPP1]	0.415
YRQK [CCR2]	0.225
YRRIYVLFKQEKVTLPMLSPLHNI [CDH10]	8.74
YRRLPRAPPHSMTRLWIPHCTSHSPLSAPSPPCWSCSHTPGTGLGHPLLPACVFLILGRPG [KRT71]	6.31
YRRQRAWCDLVGSGNGRKRSPP [BTBD9]	6.86
YRSAVQENVMLGTPSSVVLASHASAAELAE [DEFA4]	2.45

Substance	median enrichment
YRSRHLPQTWGGGPASSSTTLAPSLLTWVLAF [SCRIB]	13.1
YRTDVE [HEY1]	0.613
YRTGIHEQKAESQTCLS [CD5]	0.587
YRTM [IAPP]	0.785
YSASSNLVFSKKNIYYLFLACHFNSSRDFTAGIF [RBM48]	41.8
YSCVVKINMRKLPCNLNLGFPCNRN [IL23R]	22.3
YSCVVSLLEIELA [DGKB]	7.27
YSFKSNRIIFHLAVVRSN [SS18L2]	12.1
YSFTNQVP [SMAD2]	0.532
YSGLPVASSSTTELQTNHPKCRLDGEGKDWGGRVNSEGCPLPIPPGP [PODXL]	21.5
YSHPPPLGVPNVPSAVPAAAPLHPQLHHPLSHSRSCTPAFQLCPRGF [PRKCG]	3.59
YSPQAD [YAP1]	0.413
YSPTPTAAYLHFQFLRGTEASSQHAANLWSLILTPSPTPVVGLYYV [KIF5A]	6.66
YSQERWKQVTSTIA [OR5K1]	7.21
YSQILALLSG [CHRNA9]	12.2
YSQLKECEILNY [MTREX]	1.31
YSQPQLMPSQSQPPVTPSQSQPRVTPSQSQPHVTPYRSKSGKQKQSVPIPKTVSRKGTLKK [ADAM29]	0.413
YSQRGGQSQSQLLSCPLLPARALVLTPSCIPHLRSVY [SLC2A11]	11.1
YSQTNTPYVSVNPCYLSRVCYFPSHRPNPWSPRGSHTTAITQCRGHA [HIP1]	2.78
YSSSPVDEHLGWKFCSHTQDTAQDPAGVFFSVVRCTIGLMSIVLEDERKLRRTRSTDPDVIKHFVVSLSHR [BICD1]	3.59
YSTVI [C5orf15]	0.763
YSV [ILF3]	0.744
YSWANDH [SEMA4F]	0.76
YSYSVMTLVIFCVL [HTR1D]	15.3
YTAQGSPTQAPTLLLLALLPASVQRTGRYWWEALCLAPQLPVWASKHNGPSRSLVETGVVVPNLPSALPLHRTQRPQALQGVL [AMIGO3]	8.02

Reference: the supplement of paper PMC11502859
